Measurements published in paper PMC10076392 (2023).

B1: PBP1b (aa58-804) (enzyme)
chain: KPRGKRGWLWLLLKLAIVFAVLIAIYGVYLDQKIRSRIDGKVWQLPAAVYGRMVNLEPDMTISKNEMVKLLEATQYRQVSKMTRPGEFTVQANSIEMIRRPFDFPDSKEGQVRARLTFDGDHLATIVNMENNRQFGFFRLDPRLITMISSPNGEQRLFVPRSGFPDLLVDTLLATEDRHFYEHDGISLYSIGRAVLANLTAGRTVQGASTLTQQLVKNLFLSSERSYWRKANEAYMALIMDARYSKDRILELYMNEVYLGQSGDNEIRGFPLASLYYFGRPVEELSLDQQALLVGMVKGASIYNPWRNPKLALERRNLVLRLLQQQQIIDQELYDMLSARPLGVQPRGGVISPQPAFMQLVRQELQAKLGDKVKDLSGVKIFTTFDSVAQDAAEKAAVEGIPALKKQRKLSDLETAIVVVDRFSGEVRAMVGGSEPQFAGYNRAMQARRSIGSLAKPATYLTALSQPKIYRLNTWIADAPIALRQPNGQVWSPQNDDRRYSESGRVMLVDALTRSMNVPTVNLGMALGLPAVTETWIKLGVPKDQLHPVPAMLLGALNLTPIEVAQAFQTIASGGNRAPLSALRSVIAEDGKVLYQSFPQAERAVPAQAAYLTLWTMQQVVQRGTGRQLGAKYPNLHLAGKTGTTNNNVDTWFAGIDGSTVTITWVGRDNNQPTKLYGASGAMSIYQRYLANQTPTPLNLVPPEDIADMGVDYDGNFVCSGGMRILPVWTSDPQSLCQQSEMQQQPS
B2: FtsW-FtsI complex, His-tagged (complex)
chain 1: MRLSLPRLKMPRLPGFSILVWISTALKGWVMGSREKDTDSLIMYDRTLLWLTFGLAAIGFIMVTSASMPIGQRLTNDPFFFAKRDGVYLILAFILAIITLRLPMEFWQRYSATMLLGSIILLMIVLVVGSSVKGASRWIDLGLLRIQPAELTKLSLFCYIANYLVRKGDEVRNNLRGFLKPMGVILVLAVLLLAQPDLGTVVVLFVTTLAMLFLAGAKLWQFIAIIGMGISAVVLLILAEPYRIRRVTAFWNPWEDPFGSGYQLTQSLMAFGRGELWGQGLGNSVQKLEYLPEAHTDFIFAIIGEELGYVGVVLALLMVFFVAFRAMSIGRKALEIDHRFSGFLACSIGIWFSFQALVNVGAAAGMLPTKGLTLPLISYGGSSLLIMSTAIMMLLRIDYETRLEKAQAFVRGSR
chain 2: MKAAAKTQKPKRQEEHANFISWRFALLCGCILLALAFLLGRVAWLQVISPDMLVKEGDMRSLRVQQVSTSRGMITDRSGRPLAVSVPVKAIWADPKEVHDAGGISVGDRWKALANALNIPLDQLSARINANPKGRFIYLARQVNPDMADYIKKLKLPGIHLREESRRYYPSGEVTAHLIGFTNVDSQGIEGVEKSFDKWLTGQPGERIVRKDRYGRVIEDISSTDSQAAHNLALSIDERLQALVYRELNNAVAFNKAESGSAVLVDVNTGEVLAMANSPSYNPNNLSGTPKEAMRNRTITDVFEPGSTVKPMVVMTALQRGVVRENSVLNTIPYRINGHEIKDVARYSELTLTGVLQKSSNVGVSKLALAMPSSALVDTYSRFGLGKATNLGLVGERSGLYPQKQRWSDIERATFSFGYGLMVTPLQLARVYATIGSYGIYRPLSITKVDPPVPGERVFPESIVRTVVHMMESVALPGGGGVKAAIKGYRIAIKTGTAKKVGPDGRYINKYIAYTAGVAPASQPRFALVVVINDPQAGKYYGGAVSAPVFGAIMGGVLRTMNIEPDALTTGDKNEFV

Experiments:
Assay in all cases: BLI
[1] = biological target: FtsB-FtsL-FtsQ complex, His-tagged (E. coli strain K12, UniProt P0A6S5 1-103; P0AEN4 1-121; P06136 1-276, S3N | R4K | V5L)
PBP1b (aa58-804) = biological target: B1
[2] = biological target: FtsB-FtsL-FtsQ complex, analyte of the BLI assay (E. coli strain K12, UniProt P0A6S5 1-103; P0AEN4 1-121; P06136 1-276, S3N | R4K | V5L)

Kd [1] [nM] | Kd (PBP1b (aa58-804)) [nM] | Kd [2] [nM] | Binder
930 | – | – | B1
– | 530 | 180 | B2
